According to patent US7108990B2, “Chemokine receptor” (ChemoCentryx, Inc., priority 1999, dated 2006):
Entries after “also recorded” stand apart in the source; their conditions may differ. Where two headings read alike, the source gives them in different places.

How the values were obtained:
CCX CKR [1] = target: T1, CCX CKR (Homo sapiens, UniProt Q9NPB9); test: Small molecule screen: inhibition of 125I-ELC binding to HEK293 cells stably expressing CCX CKR; details: for effect on binding between ELC and CCX CKR: 125I-ELC ~25–100 pM, compounds 1–5 μg/mL, HEK293-CCX CKR cells, 3 hours at 4° C.; for type of modulator of CCX CKR function: Table 1, exemplary small molecule modulators of CCX CKR binding to ELC
T1 construct: Full length CCX CKR expression constructs were made in pIRESpuro expression vector; expressed in transfected cells
T1 sequence (Q9NPB9 1-350): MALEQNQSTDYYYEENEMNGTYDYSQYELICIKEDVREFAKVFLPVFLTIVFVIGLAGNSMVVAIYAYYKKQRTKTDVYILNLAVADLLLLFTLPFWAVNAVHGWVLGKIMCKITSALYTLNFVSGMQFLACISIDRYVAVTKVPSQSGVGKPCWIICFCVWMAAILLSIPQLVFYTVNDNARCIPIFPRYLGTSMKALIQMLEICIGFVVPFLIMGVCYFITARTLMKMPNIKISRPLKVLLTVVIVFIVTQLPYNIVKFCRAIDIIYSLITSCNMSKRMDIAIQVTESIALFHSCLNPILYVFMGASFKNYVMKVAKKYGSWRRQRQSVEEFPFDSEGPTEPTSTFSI
Method: Source plates of chemical libraries were obtained from commercial vendors and contained individual compounds at 5 mg/mL in DMSO, or in some instances, at 1 mg/mL. From these, multiple compound plates containing 10 compounds in each well were made, and these were diluted in 20% DMSO to a concentration of 50 μg/mL (10 μg/mL for those beginning at 1 mg/mL). An aliquot of 20 μL of each mixture was put into the test plates, which were stored frozen until use.
HEK293 cells stably expressing the M1 flag epitope-tagged CCX CKR (described in Example 3, supra) were cultured in DMEM-10% FBS, and harvested when the concentration was between 0.5–1.0×10^6 cells/mL. The cells were centrifuged and resuspended in assay buffer (20 mM HEPES, 80 mM NaCl, 1 mM CaCl2, 5 mM MgCl2, and with 0.2% bovine serum albumin, pH 7.4) to a concentration of 5.6×10^6 cells/mL.
Using a Multi-Probe automated system, 0.09 mL of cells was added to each well of the assay test plates containing the compounds, followed by 0.09 mL of ^125I-MIPβ3/ELC (from Amersham Pharmacia Biotech) diluted in assay buffer (final concentration ˜25–100 pM, with ˜50,000 cpm per well). The final concentration of the compounds was 1–5 μg/mL each. The plates were sealed and incubated for approximately 3 hours at 4° C. on a shaker platform. The assay plates were harvested using Packard GP/B filter plates, pre-soaked in PEI solution, on the vacuum harvest apparatus. Scintillation fluid (50 μL) was added to each of the wells, the plates were sealed and counted in a Top Count scintillation counter. Control wells contained either diluent only (for total counts) or excess ELC (1 μg/mL, for non-specific binding) and were used to calculate the percent of total inhibition of ELC binding for each set of compounds.

CCX CKR [2] = target: T1, CCX CKR; test: Radioligand binding competition (DisplaceMax) to CCX CKR stable transfectants with Scatchard transformation
Excerpt: In one embodiment, binding is detected as described by Dairaghi et al., 1997, J. Biol. Chem. 272:28206–209 (incorporated by reference in its entirety for all purposes) substituting CCX CKR transfectants for the CCR3 transfectants). In one embodiment, binding is detected using the filter based technique described by Dairaghi et al., 1999, J. Biol. Chem. 274:2156 (incorporated by reference in its entirety for all purposes), e.g., as shown in FIG. 4. Briefly, this technology employs expanded, efficiency-maximized radioligand binding utilizing filtration protocols. In these assays, 1×10^5 CCXCKR-293 HEK cells are incubated with ^125I-labeled ELC (MIP3beta) (final concentration of ˜0.05 nM) in the presence of unlabeled chemokine for 3 h at 4° C. in 25 mM HEPES, 140 mM NaCl, 1 mM CaCl2, 5 mM MgCl2, and 0.2% bovine serum albumin, adjusted to pH 7.1. Reactions were aspirated onto PEI-treated GF/B glass filters using a cell harvester (Packard). Filters are washed twice (25 mM HEPES, 500 mM NaCl, 1 mM CaCl2 5 mM MgCl2, adjusted to pH 7.1) and scintillant (e.g., MicroScint 20; 50 μl) is added to dried filters and counted (e.g., using a Packard Topcount scintillation counter). The competition dose-response curves is analyzed by standard methods to determine IC50 values (e.g., using GraphPad Prism software (San Diego, Calif.)). Additionally, a Scatchard transformation can be used to estimate the receptor sites per cell (e.g., using WaveMetrics Igor software (Lake Oswego, Oreg.)).
(§1) Binding analysis was carried out using efficiency-maximized radioligand binding utilizing filtration protocols designated “Displace Max” (Dairaghi et al., 1999, J. Biol. Chem. 274:21569). In these assays, DisplaceMax employed the simultaneous interrogation of CCX CKR transfectants by >80 distinct purified chemokines in the ability to displace radiolabeled ELC or TECK, using the protocol described (Dairaghi et al., 1999, J. Biol. Chem. 274:21569).
The binding interactions identified in the primary screen were examined quantitatively by extensive radioligand binding competition to CCX CKR stable transfectants and Scatchard transformation of the displacement data (FIG. 4B). […] In each case, the murine versions of these chemokines also bound, and with even greater affinity; the apparent Kd's are listed in FIG. 4B. […] In similar experiments, murine CTACK bound the receptor with a Kd of ˜9 nM (not shown). CTACK is also referred to as CCL27, ALP, ILC, and ESkine.

CCX CKR [3] = target: T1, CCX CKR; test: Ligand binding fingerprint: cold chemokines competing against 125I-ELC on CCX CKR stable transfectants; details: cold competitor at 200 nM; human and murine chemokines
Excerpt: In order to rapidly and thoroughly define a given chemokine receptor's ligand binding fingerprint, we have established an approach to comprehensively profile chemokine receptors using a large array of purified chemokines and chemokine variants. We used this approach to confirm independently the interaction of ELC and other chemokines with CCX CKR. Employing radioligand binding of ^125-labeled-ELC or ^125-TECK to CCX CKR stable transfectants, chemokine specificity for the new receptor was determined.
as §1

CCX CKR [4] = target: T1, CCX CKR; test: Adhesion of HEK293-CCX CKR cells to immobilized stalkokines and competition by soluble chemokines; type: cell-based; details: soluble recombinant chemokine 5–10 ug/ml
Excerpt: “Stalkokine” technology was used to identify the chemokines bound by the CCX CKR. Briefly, immobilized native chemokines alone are incapable of capturing cells bearing cognate receptors (Imai et al., 1997, Cell 91:521). We have developed non-native chemokine structures, stalkokines, comprising chemokine moieties engineered as N-terminal attachments to extended modified mucins (Bazan et al., 1997, Nature 385:640). In one embodiment, stalkokines, harvested in the supernatants of HEK293 cells after transient transfection, are anchored to solid substrates via antibodies against carrier domains (e.g. poly-His epitopes) engineered to the carboxyl terminus, leaving the chemokine domain free to interact with candidate orphan receptors.
To determine ligand binding to CCX CKR, HEK293-CCX CKR cells were used to interrogate chemokine ‘stalkokines’ (SK), i.e., molecules in which discrete chemokine domains were engineered to be tethered to the end of an extended stalk structure. Stalkokines were interrogated using 8-well chamber slides coated first with anti-His anchoring antibody (10 ug/ml in PBS overnight at RT), which were washed and ‘blocked’ (2% FBS/0.5% BSA in PBS); treated with 250 ul of HEK293 cell stalkokine supernatants (1 hr at 37 C), and incubated with 500,000 HEK293-CCX CKR transfectants (1.5 hrs at RT). Inhibition of adhesion by competition with soluble chemokines was done by incubating cells with 5–10 ug/ml of recombinant chemokines. In all cases, nonadherent cells were removed by washing in PBS; remaining adherent cells were fixed with 1% glutaraldehyde, photoimaged and counted. As a primary screen this adhesion would reveal putative receptor-ligand interactions.

CCX CKR [5] = target: T1, CCX CKR; test: Ligand induced internalization of Flag-CCX CKR in 293 cells (FACS); type: cell-based; details: 100 nM chemokine, 37° C., 15 or 45 minutes, 293 F-CCR10 cells
Method: 293 cells transfected with the Flag-CCX CKR fusion plasmid (i.e., “293 F-CCR10 cells;” see Example 3) were incubated at 37° C. with varying concentrations of chemokines (ELC, SLC, TECK, murine CTACK and MCP-4) for 15 or 45 minutes. Following incubation, the cells were washed and fixed with 3% paraformaldehyde for 15 minutes on ice. The cells were stained with anti-Flag M1 antibody, followed by a PE-conjugated anti-mouse secondary antibody. FACS analysis were then carried out to determine surface expression of the receptor.
Results: A reduction in antibody binding in the presence of ligand is an indication of ligand-induced internalization of the receptor.

CCX CKR [6] = target: T1, CCX CKR; test: Homologous competition binding assay with radiolabeled chemokine on HEK293-CCX CKR cells; details: HEK293-CCX CKR cells versus wildtype HEK293 cells
Excerpt: Furthermore ELC-SK mediated adhesion was abolished in the presence of soluble native ELC as a competitor (FIG. 3A, top row). […] Moreover, radiolabeled ELC was used in a traditional homologous competition assay in the presence of increasing concentrations of unlabeled ELC. […] Taken together, the stalkokine-based adhesion and radiolabeled ligand binding/homologous competition assays indicate that CCX CKR is a new chemokine receptor that bound a novel compliment of chemokines.

Molecule	effect on binding between ELC and CCX CKR (CCX CKR [1])	type of modulator of CCX CKR function (CCX CKR [1])	affinity of binding to CCX CKR, in words (CCX CKR [2])	competition with 125I-labeled ELC binding to CCX CKR (fingerprint) (CCX CKR [3])	internalization of CCX CKR (CCX CKR [5])	further results
CCC(c1nc2ccccc2c(=O)n1C)N(Cc1ccco1)C(=O)Nc1cccc(C(F)(F)F)c1 (stereo not shown) [Compound III]	enhance binding	Compound III(agonist)	–	–	–	–
CC1CCCCN1CCCN(Cc1ccc(OCc2ccccc2)cc1)C(=O)NCC1CCC2CCCC(C2)C1 (stereo not shown) [Compound II]	inhibit binding	Compound II(antagonist)	–	–	–	–
CC1CCCCN1CCCN(Cc1ccc(OCc2ccccc2)cc1)C(=O)Nc1ccc(Cl)c(Cl)c1 (stereo not shown) [Compound I]	inhibit binding	Compound I(antagonist)	–	–	–	–
BLC: the CXC chemokine BLC	–	–	lower affinity; also recorded: of lesser affinity, also bound well	potential lower affinity	–	–
MCP-3: chemokine, representative of many non-competing chemokines	–	–	–	–	–	effect of soluble chemokine on ELC-SK mediated adhesion of HEK293-CCX CKR cells (CCX CKR [4]): no diminution in adhesion
MCP-4: chemokine, did not cause receptor internalization	–	–	–	–	did not cause internalization	–
murine CTACK: murine chemokine CTACK, also referred to as CCL27, ALP, ILC, and ESkine (protein) LPLPSSTSCCTQLYRQPLPSRLLRRIVHMELQEADGDCHLQAVVLHLARRSVCVHPQNRSLARWLERQGKRLQGTVPSLNLVLQKKMYSHPQQQN	–	–	high affinity	–	Internalization of the receptor was observed	–
TECK: thymus expressed chemokine, recombinant (protein) QGVFEDCCLAYHYPIGWAVLRRAWTYRIQEVSGSCNLPAAIFYLPKRHRKVCGNPKSREVQRAMKLLDARNKVFAKLHHNTQTFQAGPHAVKKLSSGNSKLSSSKFSNPISSSKRNVSLLISANSGL	–	–	high affinity	bound well	Internalization of the receptor was observed	effect of soluble chemokine on ELC-SK mediated adhesion of HEK293-CCX CKR cells (CCX CKR [4]): significant reduction; also recorded: ablation of adhesion; binding in homologous competition of radiolabeled with unlabeled chemokine (CCX CKR [6]): Nearly identical results
mMIP-1gamma: murine chemokine MIP-1γ (protein) QITHATETKEVQSSLKAQQGLEIEMFHMGFQDSSDCCLSYNSRIQCSRFIGYFPTSGGCTRPGIIFISKRGFQVCANPSDRRVQRCIERLEQNSQPRTYKQ	–	–	lower affinity	moderately	–	–
vMIP-II: virally-encoded chemokine from the human Kaposi's sarcoma herpesvirus HHV8 (protein) LGASWHRPDKCCLGYQKRPLPQVLLSSWYPTSQLCSKPGVIFLTKRGRQVCADKSKDWVKKLMQQLPVTAR	–	–	moderate to low affinity	potential lower affinity	–	affinity of binding to CCX CKR, in words (CCX CKR [2]; listed as vMIPII): lower affinity
